Usually Kd stands for the equilibrium constant for the complex coming apart. Lower therefore signals higher affinity.

Results on 19 molecules are retold here after patent publication US20190071480A1 (Biogen, published 2019).

Substitutions are numbered along the chain they refer to. Bridges are numbered along the chain shown (N, C = ends).

Assay [1] addresses T1, extracellular domain of activin receptor type IIB (ActRIIBecd), biotinylated (Homo sapiens (Human), UniProt Q13705 27-117, amino-biotinylated with amine-PEG3-Biotin).
T1 construct: immobilised on a streptavidin-coated sensor chip; also called biotinylated ActRIIBecd; extracellular domain of ActRIIB
T1 sequence: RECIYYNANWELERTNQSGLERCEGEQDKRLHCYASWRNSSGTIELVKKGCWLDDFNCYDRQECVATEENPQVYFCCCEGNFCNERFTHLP
As to the kind of experiment: BIAcore SPR as Example 5 (method not restated); SD ±1.07 nM. On the procedure:
(§1) Biosensor experiments. In one embodiment, experiments were performed on a BIAcore™ T100/T200 instrument (Pharmacia Biosensor AB) in the multichannel mode (serial flow path involving flow cells 1+2+3+4). Flow rate was 10 μl/min; temperature was 25° C.; and data were recorded at 2.5 points/s. All four segments of a sensor chip CMS were coated with streptavidin (Sigma) to a density of 2000 pg/mm² (2000 resonance units) by the aminocoupling procedure. ActRIIBecd (10 mg) and amine-PEG3-Biotin (10 mg, Pierce, Rockford, Ill.) were dissolved in 200 μl H₂O and 10 mg NaCNBH₃ was added to prepare biotinylated ActRIIBecd. The reaction mixture was heated at 70° C. for 24 h, after that a further 10 mg NaCNBH₃ was added and the reaction was heated at 70° C. for another 24 h. After cooling to room temperature, the mixture was desalted with the spin column (3,000 molecular weight cut off (MWCO)). […] Sensograms were recorded during flow of the analyte (the ActRIIBecd-associated polypeptides (i.e., domains) as previously described) first through flow cell 1 (control) then through flow cell 2 (biotinylated ActRIIBecd). […] The sensograms obtained at 1.11, 3.33, 10, 30, and 90 nM analyte were evaluated for equilibrium binding, association rate, and dissociation rate by using the programs supplied with the instrument (BIA evaluation 2.1; Software Handbook. 1995; Pharmacia Biosensor AB).
For orientation: Surface plasmon resonance follows binding to a sensor surface in real time, without labels.

The target of assay [2] is T1, extracellular domain of activin …. Nature of the assay: Mean KD column of Table 5; method not restated (BIAcore as Example 5); species also listed in Table 4. How it is done:
(§2) Biosensor experiments. In one embodiment, experiments were performed on a BIAcore™ T100/T200 instrument (Pharmacia Biosensor AB) in the multichannel mode (serial flow path involving flow cells 1+2+3+4). Flow rate was 10 μl/min; temperature was 25° C.; and data were recorded at 2.5 points/s. All four segments of a sensor chip CMS were coated with streptavidin (Sigma) to a density of 2000 pg/mm² (2000 resonance units) by the aminocoupling procedure. ActRIIBecd (10 mg) and amine-PEG3-Biotin (10 mg, Pierce, Rockford, Ill.) were dissolved in 200 μl H₂O and 10 mg NaCNBH₃ was added to prepare biotinylated ActRIIBecd. The reaction mixture was heated at 70° C. for 24 h, after that a further 10 mg NaCNBH₃ was added and the reaction was heated at 70° C. for another 24 h. After cooling to room temperature, the mixture was desalted with the spin column (3,000 molecular weight cut off (MWCO)). Biotinylated ActRIIBecd was collected, freeze-dried and used for streptavidin (SA) chip preparation. Amino-biotinylated ActRIIBecd was then immobilized independently on flow cells 2-4 for 10 minutes at a flow rate of 5 μL/min and a concentration of 20 μM in 10 mM sodium acetate, pH 4.0, at a density of 50-250 resonance units (RU). The stored polypeptides were dissolved in glycine buffer (2.5 g of glycine, 0.5 g of sucrose, 370 mg of L-glutamate, 10 mg of sodium chloride, and 10 mg of Tween 80 in 100 mL water, pH 4.5) to prepare 10 mg/mL solution and then diluted with previous glycine buffer to prepare analytes with various concentration. Sensograms were recorded during flow of the analyte (the ActRIIBecd-associated polypeptides (i.e., domains) as previously described) first through flow cell 1 (control) then through flow cell 2 (biotinylated ActRIIBecd). The sensogram obtained for flow cell 1 was subtracted from the sensogram obtained for flow cell 2. The sensograms obtained at 1.11, 3.33, 10, 30, and 90 nM analyte were evaluated for equilibrium binding, association rate, and dissociation rate by using the programs supplied with the instrument (BIA evaluation 2.1; Software Handbook. 1995; Pharmacia Biosensor AB).

Assay [3] shares this target. As to the kind of experiment: BIAcore SPR as Example 5 (method not restated); SD ±1.67 nM. How it is done: as §1
Assay [4] shares this target. Nature of the assay: BIAcore SPR as Example 5 (method not restated); SD ±1.74 nM. On the procedure: as §1
The target is the same in assay [5]. Nature of the assay: BIAcore SPR as Example 5 (method not restated); SD ±3.15 nM. How it is done:
as §1

Assay [6] has the same target. As to the kind of experiment: BIAcore SPR as Example 5 (method not restated); SD ±1.55 nM. On the procedure:
as §2, with “The sensogram obtained for flow cell 1 was subtracted from the sensogram obtained for flow cell 2.” left out

The target is the same in assay [7]. Nature of the assay: BIAcore SPR as Example 5 (method not restated); SD ±1.35 nM. How it is done:
as §1

For assay [8] the target is unchanged. As to the kind of experiment: BIAcore SPR as Example 5 (method not restated); SD ±1.63 nM. On the procedure:
as §1

For assay [9] the target is unchanged. Nature of the assay: BIAcore SPR as Example 5 (method not restated); SD ±2.10 nM. On the procedure: as §1
Assay [10] shares this target. Nature of the assay: BIAcore SPR as Example 5 (method not restated); SD ±2.15 nM. On the procedure:
as §1

B1: SEQ ID NO: 348, cysteine pairs C15-C15^b, C29-C62^a, C30-C64^a, C88-C92^a (designed binder)
chain: GQAKRKGYKRLKSSCKRHPLYNSKIPKACCVPTELSAISMLYLDENEKVVLKNYQDMVVEGCGCRVDFSDVGWNDWIVAPPGYHAFYCHGECPFPLADHLNSTNHAIVQTLVNSV
modifications: disulfides C15-C15 (inter), C29-C62 (intra), C30-C64 (intra), C88-C92 (intra)
notes: homodimer by intermolecular disulfide
In the case of B1, the Kd in [1] and in assay [2] was 5.1 nM each time.

B2: SEQ ID NO: 194, cysteine pairs C23-C27^a (designed binder)
chain: VDFSDVGWNDWIVAPPGYHAFYCHGECPFPLADHLNSTNHAIVQTLVNSVAQAKHKQRKRLKSSCKRHPLY
modifications: disulfides C23-C27 (intra)
For B2, the Kd in [3] and in assay [2] was 18.1 nM throughout.

B3: SEQ ID NO: 254, cysteine pairs C23-C27^a, C58-C91^a, C59-C93^a (designed binder)
chain: VDFKDVGWNDHAVAPPGYHAFYCHGECPFPLADHLNSDNHAIVQTKVNSVNSKDPKACCVPTELSAPSPLYLDENEKPVLKNYQDMVVHGCGCR
modifications: disulfides C23-C27 (intra), C58-C91 (intra), C59-C93 (intra)
As to B3, the dissociation constant (Kd) in assay [4] and in assay [2] was 17.6 nM in each case.

B4: SEQ ID NO: 284, cysteine pairs C8-C9^a (designed binder)
chain: NSKIPKACCVPTELSAISMLYLDENEKVVLKNYQDMVVEGCGCRAQAKHKQRKRLKSSCKRHPLYVDFSDVGWNDWIVAPPGYHAFYCHGECPFPLADHLNSTNHAIVQTLVNSV
modifications: disulfides C8-C9 (intra)
As for B4, the Kd in assay [5] and in assay [2] was 31.8 nM each time.

B5: SEQ ID NO: 284, cysteine pairs C59-C59^b, C8-C43^b, C9-C41^b, C88-C92^a (designed binder)
chain: B4 chain
modifications: disulfides C59-C59 (inter), C8-C43 (inter), C9-C41 (inter), C88-C92 (intra)
notes: as for B1
Turning to B5, the Kd in [6] and in assay [2] was 6.91 nM in each case.

B6: SEQ ID NO: 284, cysteine pairs C59-C59^b, C8-C43^a, C9-C41^a, C88-C92^a (designed binder)
chain: B4 chain
modifications: disulfides C59-C59 (inter), C8-C43 (intra), C9-C41 (intra), C88-C92 (intra)
notes: as for B1
B6: the Kd in assay [7] and in [2] was 6.88 nM in each case.

B7: SEQ ID NO: 308, cysteine pairs C59-C59^b, C8-C41^b, C9-C43^b, C88-C92^a (designed binder)
chain: NSKDPKACCVPTELSAPSPLYLDENEKPVLKNYQDMVVHGCGCRGQAKRKGYKRLKSSCKRHPLYVDFKDVGWNDHAVAPPGYHAFYCHGECPFPLADHLNSDNHAIVQTKVNSV
modifications: disulfides C59-C59 (inter), C8-C41 (inter), C9-C43 (inter), C88-C92 (intra)
notes: as for B1
As to B7, the Kd in assay [6] and in assay [2] was 6.73 nM in each case.

B8: SEQ ID NO: 242, cysteine pairs C29-C30^a (designed binder)
chain: GQAKRKGYKRLKSSCKRHPLYNSKDPKACCVPTELSAPSPLYLDENEKPVLKNYQDMVVHGCGCR
modifications: disulfide 29-30
Take B8: the Kd in [5] and in [2] was 48.7 nM in each case.

B9: SEQ ID NO: 242, cysteine pairs C15-C15^b, C29-C64^a, C30-C62^a (designed binder)
chain: B8 chain
modifications: disulfide 29-64, 30-62; also: homodimer via intermolecular C15-C15 disulfide
notes: as for B1
With B9, the Kd in assay [8] and in assay [2] was 18.1 nM in each case.

B10: SEQ ID NO: 230, cysteine pairs C27-C65^a (designed binder)
chain: VDFKDVGWNDHAVAPPGYHAFYCHGECPFPLADHLNSDNHAIVQTKVNSVGQAKRKGYKRLKSSCKRHPLY
modifications: disulfides C27-C65 (intra)
B10: the Kd in assay [8] and in assay [2] was 52.2 nM throughout.

B11: SEQ ID NO: 340, cysteine pairs C15-C15^b, C29-C64^b, C30-C62^b, C88-C92^a (designed binder)
chain: AQAKHKQRKRLKSSCKRHPLYNSKDPKACCVPTELSAPSPLYLDENEKPVLKNYQDMVVHGCGCRVDFKDVGWNDHAVAPPGYHAFYCHGECPFPLADHLNSDNHAIVQTKVNSV
modifications: disulfides C15-C15 (inter), C29-C64 (inter), C30-C62 (inter), C88-C92 (intra)
notes: as for B1
Turning to B11, the Kd in [6] and in assay [2] was 6.37 nM throughout.

B12: SEQ ID NO: 236, cysteine pairs C59-C59^b, C8-C41^a, C9-C43^a (designed binder)
chain: NSKDPKACCVPTELSAPSPLYLDENEKPVLKNYQDMVVHGCGCRGQAKRKGYKRLKSSCKRHPLY
modifications: disulfide 8-41, 9-43; also: homodimer via intermolecular C59-C59 disulfide
notes: as for B1
As to B12, the Kd in assay [9] and in assay [2] was 16.2 nM in each case.

B13: SEQ ID NO: 260, cysteine pairs C79-C80^a (designed binder)
chain: AQAKHKQRKRLKSSCKRHPLYVDFSDVGWNDWIVAPPGYHAFYCHGECPFPLADHLNSTNHAIVQTLVNSVNSKIPKACCVPTELSAISMLYLDENEKVVLKNYQDMVVEGCGCR
modifications: disulfides C79-C80 (intra)
On to B13, for which the Kd in [7] and in [2] was 29.1 nM in each case.

B14: SEQ ID NO: 260, cysteine pairs C80-C114^a, C79-C112^a, C44-C48^a (designed binder)
chain: B13 chain
modifications: disulfides C80-C114 (intra), C79-C112 (intra), C44-C48 (intra)
Regarding B14, the Kd in assay [1] and in assay [2] was 8.31 nM throughout.

B15: SEQ ID NO: 260, cysteine pairs C15-C15^b, C80-C114^a, C79-C112^a, C44-C48^a (designed binder)
chain: B13 chain
modifications: disulfides C15-C15 (inter), C80-C114 (intra), C79-C112 (intra), C44-C48 (intra)
notes: as for B1
As for B15, the Kd in [3] and in assay [2] was 7.45 nM throughout.

B16: SEQ ID NO: 324, cysteine pairs C80-C114^a, C79-C112^a, C44-C48^a (designed binder)
chain: B13 chain with S25K, W32H, I33A, T59D, L67K
modifications: disulfides C80-C114 (intra), C79-C112 (intra), C44-C48 (intra)
On to B16, for which the equilibrium dissociation constant (Kd) in assay [10] and in assay [2] was 7.22 nM each time.

B17: SEQ ID NO: 324, cysteine pairs C79-C80^a (designed binder)
chain: B13 chain with S25K, W32H, I33A, T59D, L67K
modifications: disulfides C79-C80 (intra)
As for B17, the Kd in [9] and in assay [2] was 29.3 nM in each case.

B18: SEQ ID NO: 206, cysteine pairs C67-C71^a, C8-C43^b, C9-C41^b (designed binder)
chain: NSKIPKACCVPTELSAISMLYLDENEKVVLKNYQDMVVEGCGCRVDFSDVGWNDWIVAPPGYHAFYCHGECPFPLADHLNSTNHAIVQTLVNSV
modifications: disulfides C67-C71 (intra), C8-C43 (inter), C9-C41 (inter)
notes: as for B1
For the molecule B18, the equilibrium dissociation constant (Kd) in assay [10] and in assay [2] was 17 nM each time.

B19: SEQ ID NO: 248, cysteine pairs C67-C71^a, C8-C41^a, C9-C43^a (designed binder)
chain: B18 chain with I4D, I17P, M19P, V28P, E39H, S48K, W55H, I56A, T82D, L90K
modifications: disulfides C67-C71 (intra), C8-C41 (intra), C9-C43 (intra)
B19: the Kd in assay [4] and in [2] was 18.5 nM throughout.
